Assay results: US20150158934A1 (UCL BUSINESS, published 2015)

B1: L91B5 (VHH)
VHH: EVQLVESGGGLVQPGGSLRLSCAASGATFDDYAIGWFRQAPGKEREGVSYIGCNDGATYYAGSVKGRFTISCDYAKNTVYLQMNSLKPEDTAVYYCAAAAQWATIRWIHEYDYNIWGQGTQVTVSS
notes: Purified by IMAC
B2: L91H9 (VHH)
VHH: EVQLVESGGGLVQAGGSLRLSCAVSGATFDDYAIGWFRQAPGKEREGVSYIGCNDGSTYYAGSVKGRFTISCDYAKNTVYLQMNSLKPEDTAVYYCAAAAQWATIRWIHEYDYDTWGQGTQVTVSS
notes: Purified by IMAC; tags not written into the chain
B3: L91C2 (VHH)
VHH: EVQLVESGGGLVQPGGSLRLSCAASGFTLDGYAIGWFRQAPGKEREAISCITTAGTIYYADSVKGRVTISRDNAKNTVYLQMNSLKPEDTAVYLCAADGFDTPCVAGTDWGYDYEGQGTQVTVSS
notes: as for B2
B4: L91F10 (VHH)
VHH: EVQLVESGGGLVQPGGSLTLSCVASGFTLDGYAIGWFRQAPGKEVESVSCITGRHGTIYYADSVMGRFTISRDNAKSTVYLQMNSLKPEDTAVYYCAADGFDTPCVAGTDWQYDYWGQGTQVTVSS
notes: as for B2
B5: L92E7 (VHH)
VHH: EVQLVESGGGLVQPGGSLRLSCAASGNIVSIDAAGWFRQAPGKQREPVATILTGGATNYADSVKGRFTISRDNAKNTVYLQMSSLKPEDTAVYYCYAPMIYYGGRYSDYWGQGTQVTVSS
notes: as for B2
B6: L82B4F (VHH)
VHH: EVQLVESGGGLVQAGGSLRLSCAASGFTSDDYAIGWFRRAPGKEREGVSYISIEDGSTYSADSVKGRFTISSDYAKNTVYLQMNGLKPEDTAVYYCAAAILGDSVRWLQEYDYDYWGQGTQVTVSS
notes: Family member of L81H9; tags not written into the chain
B7: L8Cj3 (VHH)
VHH: EVQLVESGGGLVQAGGFLRLSCELRGSIFNQYAMAWFRQAPGKEREFVAGMGAVPHYGEFVKGRFTISRDNAKSTVYLQMSSLKPEDTAIYFCARSKSTYISYNSNGYDYWGRGTQVTVSS
notes: 207 chosen because J3r is said to carry S82aN against L8Cj3; also called L8CjJ3; L9Cj3
B8: mAb 2G12 (antibody, V domains shown)
VH: EVQLVESGGGLVKAGGSLILSCGVSNFRISAHTMNWVRRVPGGGLEWVASISTSSTYRDYADAVKGRFTVSRDDLEDFVYLQMHKMRVEDTAIYYCARKGSDRLSDNDPFDAWGPGTVVTVSP
VL: DVVMTQSPSTLSASVGDTITITCRASQSIETWLAWYQQKPGKAPKLLIYKASTLKTGVPSRFSGSGSGTEFTLTISGLQFDDFATYHCQHYAGYSATFGQGTRVEIKR

Experiments:
Experiment in all cases: SPR
[1] = target: T1, gp140CN54 (subtype B'/C), gp140 envelope glycoprotein from the HIV-1 group M CRF07-B/C-clade isolate 97CN54 (HIV-1)
T1 construct: also called CN54 gp140/420 (C); CN54 gp140 Env

[2] = target: T2, gp140UG37 (subtype A), gp140 envelope glycoprotein from the HIV-1 group M A-clade isolate 92UG037 (HIV-1)
T2 construct: also called UG037 gp140/420 (A); gp140-UG037

CA018 gp140/420 (A/G) = target: T3, CA018 gp140/420 (A/G) (HIV-1)
T3 construct: also called gp120 of CA18

gp120IIIB (subgroup B) [3] = target: T4, gp120IIIB (subgroup B) (HIV-1, UniProt P04578 33-511)
T4 construct: it is not tied to this reagent; also called IIIB gp120 (B)

gp120IIIB (subgroup B) [4] = target: gp120IIIB (subgroup B) (HIV-1, UniProt P04578 33-511)

| Binder | Kd [1] [nM] | Kd [2] [nM] | Kd (CA018 gp140/420 (A/G)) [nM] | Kd (gp120IIIB (subgroup B) [3]) [nM] | koff (gp120IIIB (subgroup B) [3]) [s⁻¹] | kon (gp120IIIB (subgroup B) [3]) [M⁻¹ s⁻¹] | koff [1] [s⁻¹] | kon [1] [M⁻¹ s⁻¹] | koff [2] [s⁻¹] | kon [2] [M⁻¹ s⁻¹] | koff (CA018 gp140/420 (A/G)) [s⁻¹] | kon (CA018 gp140/420 (A/G)) [M⁻¹ s⁻¹] | Kd (gp120IIIB (subgroup B) [4]) [nM] | koff (gp120IIIB (subgroup B) [4]) [s⁻¹] | kon (gp120IIIB (subgroup B) [4]) [M⁻¹ s⁻¹] |
| --- | --- | --- | --- | --- | --- | --- | --- | --- | --- | --- | --- | --- | --- | --- | --- |
| B1 | 0.00127 | 0.174 | 15.6 |  |  |  |  |  |  |  |  |  |  |  |  |
| B2 | 0.0625 | 0.0102 | 321 | 4.11 | 0.000711 | 173000 | 1.1e-06 | 17600 | 9.81e-08 | 9610 | 0.428 | 1.33e+06 |  |  |  |
| B3 |  |  |  | 2.01 | 0.00025 | 122000 |  |  |  |  |  |  |  |  |  |
| B4 | 0.0771 | 3.98 | 1.18 |  |  |  | 7.12e-07 | 9230 | 0.00012 | 29300 | 6.94e-05 | 58800 |  |  |  |
| B5 | 4.46 | 11.2 | 7 | 4.42 | 0.00077 | 174000 | 0.00015 | 33200 | 0.00025 | 22200 | 0.00013 | 18000 |  |  |  |
| B6 |  | 0.0031 | 3500 | 0.0315 | 0.000734 | 2.3e+07 |  |  | 3.25e-08 | 10500 | 0.00298 | 850 |  |  |  |
| B7 |  | 0.00702 | 8.86 |  |  |  |  |  | 5.48e-08 | 7800 | 3.98e-05 | 4490 |  |  |  |
| B8 |  |  |  |  |  |  |  |  |  |  |  |  | 1.91 | 0.000314 | 165000 |
